Test [1] deals with T1, PTP1B under reducing condition (Homo sapiens, UniProt P18031).
T1 construct: made in house; host or cells: E. coli BL21 (pET19b)
T1 sequence (P18031 3-277 limits assumed): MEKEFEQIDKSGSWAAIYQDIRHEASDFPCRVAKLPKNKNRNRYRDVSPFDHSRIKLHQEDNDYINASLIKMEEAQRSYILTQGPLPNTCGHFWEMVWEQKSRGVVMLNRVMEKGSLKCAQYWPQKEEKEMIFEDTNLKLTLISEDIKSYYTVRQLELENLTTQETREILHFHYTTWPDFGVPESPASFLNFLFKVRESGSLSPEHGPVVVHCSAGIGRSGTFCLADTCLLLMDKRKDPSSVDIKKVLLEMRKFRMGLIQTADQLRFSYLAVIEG
In words: In vitro binding assay, purified recombinant PTP1B (37 kDa) and purified scFv, Ni-NTA pull down, reducing condition. Conditions: with 2 mM TCEP; FIG. 9. The protocol: (§1) They established conditions in which PTP1B is reversibly oxidized by H2O2 in solution (FIG. 8). An artificial protein substrate RCML, in which tyrosine was phosphorylated with ^32P using recombinant GST-FER kinase was used in this assay to measure the phosphatase activity. Recombinant PTP (37 kDa) was incubated with increasing concentration (50 μM to 100 mM) of H2O2. A quick buffer exchange was done to remove the H2O2 and reducing agent (TCEP) was added to reactivate the enzyme.
(§2) In the in vitro binding assay, purified PTP was reversibly oxidized with […] followed by a quick buffer exchange to remove H2O2 (FIG. 8). Purified scFv was incubated in molar excess with PTP1B-OX or with PTP under reducing condition (with 2 mM TCEP) in binding buffer (20 mM HEPES, pH 7.4, 300 mM NaCl, 0.05% BSA, 0.05% Tween-20 and 10 mM imidazole) for 2 hours at 4° C. Ni-NTA agarose was added and incubated for one hour at 4° C. Protein complex bound to Ni-NTA agarose beads was pulled down and washed (three times, 5 minutes each, at 4° C.) with binding buffer containing 20 mM imidazole to reduce non-specific binding to the beads. The protein complex was eluted from the Ni-NTA agarose beads with 500 mM imidazole (in binding buffer, pH 7.4) for 15 minutes at 4° C. with gentle shaking. The complex was separated by SDS-PAGE and PTP1B was detected with anti-PTP1B antibody (FG6) and scFv was detected with anti-HA antibody [anti-HA (3F10)-HRP, Roche] by immunoblotting. Eight different scFvs (scFvs 20, 21, 24, 28, 45, 48, 57, and 105), expressed and purified from bacterial cultures were tested by this in vitro binding experiment.

Test [2] addresses T2, PTP1B-OX (Homo sapiens, UniProt P18031).
T2 construct: made in house; host or cells: E. coli BL21 (pET19b)
T2 sequence (P18031 3-277): T1 sequence (P18031 3-277 limits assumed)
In words: In vitro binding assay, purified recombinant PTP1B (37 kDa) and purified scFv, Ni-NTA pull down. Conditions: purified proteins, scFv in molar excess, 2 hours at 4° C.; FIG. 9. The protocol: as §1, §2

Test [3] concerns the target T3, PTP1B (reduced, active) (Homo sapiens, UniProt P18031).
T3 construct: made in house; host or cells: E. coli BL21 (pET19b)
T3 sequence (P18031 3-277 limits assumed): T1 sequence (P18031 3-277 limits assumed)
In words: Direct effect of scFvs/antibodies on PTP1B phosphatase activity (32P-pTyr-RCML substrate). Format: biochemical. Conditions: 32P-labeled pTyr-RCML substrate, FIG. 1. The protocol:
Applicant's hypothesis was that scFvs that are able to bind to and stabilize the oxidized conformation of PTP1B in solution would inhibit reactivation by reducing agent, but have no direct inhibitory effect on phosphatase activity in assays in vitro. Activity was measured using ^32P-labeled pTyr-Reduced Carboxamidomethylated and Maleylated Lysozyme as substrate. Applicant established conditions in which wild type PTP1B could be reversibly oxidized in vitro. PTP1B was inactivated following addition of H2O2. […] Applicant validated this approach further, by testing the effects of expressing one of the scFvs (scFv45) as a single chain antibody fragment “intrabody” to PTP1B, using 293T cells as the expression system. This intrabody was expressed transiently and then tested for effects on insulin signaling, focusing initially on the tyrosine phosphorylation status of the beta-subunit of the insulin receptor and insulin receptor substrate (IRS-1).
Reduced carboxamidomethylated and maleylated lysozyme (RCML) was labeled with ^32P using recombinant GST-FER kinase to stoichiometries up to 0.8 (mol ^32P incorporated/mol of protein). This ^32P-Labeled phospho-tyrosyl RCML was used as the substrate in the in-solution phosphatase assay for screening the conformation sensor scFvs. Recombinant PTP1B was reversibly oxidized and transiently inactivated with H2O2 (5× molar excess of the protein). […] Purified bacterially expressed scFvs (100× molar excess of PTP1B) were incubated with PTP after H2O2 treatment and its removal and the effect of individual scFv on stabilizing the reversibly oxidized conformation was assessed by the phosphatase assay under reducing condition.
In order to screen the isolated scFvs for those that inhibit reactivation of PTP1B-OX by reducing agent, but have no direct inhibitory effect on phosphatase activity in assays in vitro, the effect of six scFvs (scFv20, scFv34, scFv45, scFv57, scFv64 and scFv106) on PTP1B activity was determined. PTP1B activity was measured using 32P-labeled pTyr-Reduced Carboxamidomethylated and Maleylated Lysozyme as substrate (FIGS. 1 and 2). Addition of the reducing agent TCEP alone had no substantial effect in PTP1B activity was assessed.

The values that follow come from patent US9074002B2, “PTP1B inhibitors” (Cold Spring Harbor Laboratory, priority 2009, dated 2015).

B1: scFv57: scFv binding PTP1B-OX, SEQ ID NO: 27 and 90 (protein)
scFv: MKKTAIAIAVALAGFATVAQAALTQPSSVSANPGAFNKITCSGSSSAYGYGWNQQKSPGSAPVTVIYNNNKRPSNIPSRFSGSKSGSTGTLTITGDQDEDEDFYFCGSEYSSTDAIFGAGTTLTVLGQSSRSSTVTLDESGGGLQAPGGALSLVCKASGFTFSSYDMGWIPQAPGKGLEYVAGITDNGIYASYGSAVDGRATISRDNRQSSVKLQLNNLKADDTGTYYCARDDGSGWTGNSIDAWGHGTEVIVSSTSGQAGQHHHHHHGAYPYDVPDYAS
For the molecule B1, the “binding to PTP1B under reducing condition in vitro” value in test [1] is “not to PTP under reducing condition”. Further, in test [2], the “binding to PTP1B-OX in vitro” value is reported as “specific binding to PTP1B-OX”. Further, the “direct effect on PTP1B activity” value in test [3] is “no direct inhibition of PTP activity”.

B2: scFv45: conformation-sensor scFv binding PTP1B-OX, SEQ ID NO: 26 and 78; expressed as intrabody (protein)
scFv: MKKTAIAIAVALAGFATVAQAALTQPSSVSANPGGTVKITCSGSSSAYGYGWYQQKSPGSAPVTVIYNNNKRPSNIPSRFSGSKSGSTGTLTITGVQAEDEAVYFCGSEDSSTDAIFGAGTTLTVLGQSSRSSTVTLDESGGGLQAPGGALSLVCKASGFTFSSYDMGWIRQAPGKGLEYVAGITDNGRYASYGSAVDGRATISRDNGQSSVRLQLNNLRAEDTGTYYCARDDGSGWTGNSIDAWGHGTEVIVSSTSGQAGQHHHHHHGAYPYDVPDYAS
As to B2, the “binding to PTP1B under reducing condition in vitro” value in test [1] was “not to PTP under reducing condition”. Moreover, the “binding to PTP1B-OX in vitro” value in test [2] is given as “specific binding to PTP1B-OX”. In test [3], the “direct effect on PTP1B activity” value is “no direct inhibition of PTP activity”.
